Test results as given in the Human Domainome abundance scans (Beltran et al. 2025).
± gives the uncertainty stated by the source.

Assay: abundance fitness (aPCA) (normalised: wild type 0, dead -1); higher = more abundant; growth selection in yeast, the domain comes from the species named
Conditions: Homo sapiens

In order of falling abundance fitness:
1. Scaffold attachment factor B2 G68K, Q14151  0.232 ± 0.25
2. Scaffold attachment factor B2 I36D, Q14151  0.206 ± 0.18
3. Scaffold attachment factor B2 I36T, Q14151  0.173 ± 0.12
4. Scaffold attachment factor B2 G68E, Q14151  0.166 ± 0.095
5. Scaffold attachment factor B2 I36E, Q14151  0.157 ± 0.13
6. Scaffold attachment factor B2 I36A, Q14151  0.153 ± 0.082
7. Scaffold attachment factor B2 I36S, Q14151  0.127 ± 0.081
8. Scaffold attachment factor B2 I36C, Q14151  0.086 ± 0.099
9. Scaffold attachment factor B2 I36Q, Q14151  0.08 ± 0.12
10. Scaffold attachment factor B2 I36R, Q14151  0.079 ± 0.071
11. Scaffold attachment factor B2 I36P, Q14151  0.067 ± 0.096
12. Scaffold attachment factor B2 I36G, Q14151  0.066 ± 0.068
13. Scaffold attachment factor B2 G50R, Q14151  0.05 ± 0.079
14. Scaffold attachment factor B2 I36M, Q14151  0.043 ± 0.17
15. Scaffold attachment factor B2 I36K, Q14151  0.04 ± 0.089
16. Scaffold attachment factor B2 K43A, Q14151  0.022 ± 0.097
17. Scaffold attachment factor B2 G68A, Q14151  0.004 ± 0.094
18. Scaffold attachment factor B2 I36V, Q14151  -0.002 ± 0.091
19. Scaffold attachment factor B2 G50V, Q14151  -0.015 ± 0.08
20. Scaffold attachment factor B2 G68T, Q14151  -0.026 ± 0.12
21. Scaffold attachment factor B2 K43S, Q14151  -0.057 ± 0.091
22. Scaffold attachment factor B2 G50N, Q14151  -0.065 ± 0.1
23. Scaffold attachment factor B2 K44A, Q14151  -0.067 ± 0.08
24. Scaffold attachment factor B2 K43E, Q14151  -0.071 ± 0.084
25. Scaffold attachment factor B2 I36N, Q14151  -0.073 ± 0.13
26. Scaffold attachment factor B2 G50S, Q14151  -0.077 ± 0.11
27. Scaffold attachment factor B2 G68Q, Q14151  -0.078 ± 0.1
28. Scaffold attachment factor B2 G50C, Q14151  -0.082 ± 0.12
29. Scaffold attachment factor B2 G50T, Q14151  -0.096 ± 0.17
30. Scaffold attachment factor B2 G50A, Q14151  -0.099 ± 0.089
31. Scaffold attachment factor B2 I36L, Q14151  -0.103 ± 0.087
32. Scaffold attachment factor B2 K43R, Q14151  -0.104 ± 0.076
33. Scaffold attachment factor B2 E66G, Q14151  -0.108 ± 0.083
34. Scaffold attachment factor B2 G50H, Q14151  -0.108 ± 0.093
35. Scaffold attachment factor B2 G50M, Q14151  -0.114 ± 0.11
36. Scaffold attachment factor B2 G50E, Q14151  -0.119 ± 0.084
37. Scaffold attachment factor B2 K43Q, Q14151  -0.124 ± 0.096
38. Scaffold attachment factor B2 E66R, Q14151  -0.131 ± 0.071
39. Scaffold attachment factor B2 K43D, Q14151  -0.147 ± 0.11
40. Scaffold attachment factor B2 K43V, Q14151  -0.149 ± 0.1
41. Scaffold attachment factor B2 G68V, Q14151  -0.169 ± 0.092
42. Scaffold attachment factor B2 G50D, Q14151  -0.171 ± 0.12
43. Scaffold attachment factor B2 K43G, Q14151  -0.172 ± 0.074
44. Scaffold attachment factor B2 G68S, Q14151  -0.178 ± 0.12
45. Scaffold attachment factor B2 G68P, Q14151  -0.19 ± 0.13
46. Scaffold attachment factor B2 K43L, Q14151  -0.191 ± 0.089
47. Scaffold attachment factor B2 G50L, Q14151  -0.194 ± 0.08
48. Scaffold attachment factor B2 E66I, Q14151  -0.207 ± 0.15
49. Scaffold attachment factor B2 I36H, Q14151  -0.208 ± 0.2
50. Scaffold attachment factor B2 E66H, Q14151  -0.214 ± 0.11
51. Scaffold attachment factor B2 K43T, Q14151  -0.217 ± 0.1
52. Scaffold attachment factor B2 E67H, Q14151  -0.218 ± 0.4
53. Scaffold attachment factor B2 K44E, Q14151  -0.219 ± 0.091
54. Scaffold attachment factor B2 K44G, Q14151  -0.225 ± 0.072
55. Scaffold attachment factor B2 E67S, Q14151  -0.226 ± 0.095
56. Scaffold attachment factor B2 E67A, Q14151  -0.23 ± 0.12
57. Scaffold attachment factor B2 E66V, Q14151  -0.232 ± 0.1
58. Scaffold attachment factor B2 E67Q, Q14151  -0.246 ± 0.1
59. Scaffold attachment factor B2 E66L, Q14151  -0.247 ± 0.1
60. Scaffold attachment factor B2 G50W, Q14151  -0.26 ± 0.089
61. Scaffold attachment factor B2 K43C, Q14151  -0.271 ± 0.12
62. Scaffold attachment factor B2 E66T, Q14151  -0.301 ± 0.21
63. Scaffold attachment factor B2 E66N, Q14151  -0.322 ± 0.26
64. Scaffold attachment factor B2 E66M, Q14151  -0.329 ± 0.12
65. Scaffold attachment factor B2 G50Q, Q14151  -0.329 ± 0.12
66. Scaffold attachment factor B2 G68M, Q14151  -0.33 ± 0.12
67. Scaffold attachment factor B2 E67V, Q14151  -0.333 ± 0.1
68. Scaffold attachment factor B2 K43W, Q14151  -0.359 ± 0.094
69. Scaffold attachment factor B2 E66W, Q14151  -0.365 ± 0.12
70. Scaffold attachment factor B2 G68L, Q14151  -0.365 ± 0.098
71. Scaffold attachment factor B2 K43N, Q14151  -0.367 ± 0.2
72. Scaffold attachment factor B2 E67P, Q14151  -0.377 ± 0.12
73. Scaffold attachment factor B2 E67T, Q14151  -0.381 ± 0.1
74. Scaffold attachment factor B2 E66F, Q14151  -0.417 ± 0.13
75. Scaffold attachment factor B2 G51E, Q14151  -0.426 ± 0.094
76. Scaffold attachment factor B2 E67C, Q14151  -0.433 ± 0.12
77. Scaffold attachment factor B2 E67R, Q14151  -0.445 ± 0.1
78. Scaffold attachment factor B2 K44C, Q14151  -0.48 ± 0.12
79. Scaffold attachment factor B2 E66P, Q14151  -0.485 ± 0.16
80. Scaffold attachment factor B2 K43P, Q14151  -0.486 ± 0.12
81. Scaffold attachment factor B2 E67L, Q14151  -0.495 ± 0.094
82. Scaffold attachment factor B2 E66K, Q14151  -0.5 ± 0.26
83. Scaffold attachment factor B2 I36F, Q14151  -0.507 ± 0.17
84. Scaffold attachment factor B2 G68F, Q14151  -0.509 ± 0.17
85. Scaffold attachment factor B2 G50F, Q14151  -0.51 ± 0.17
86. Scaffold attachment factor B2 G51C, Q14151  -0.517 ± 0.13
87. Scaffold attachment factor B2 E67M, Q14151  -0.525 ± 0.11
88. Scaffold attachment factor B2 K44D, Q14151  -0.549 ± 0.19
89. Scaffold attachment factor B2 G68I, Q14151  -0.551 ± 0.099
90. Scaffold attachment factor B2 G51S, Q14151  -0.597 ± 0.085
91. Scaffold attachment factor B2 K43I, Q14151  -0.599 ± 0.17
92. Scaffold attachment factor B2 K43F, Q14151  -0.601 ± 0.15
93. Scaffold attachment factor B2 K44F, Q14151  -0.61 ± 0.12
94. Scaffold attachment factor B2 G51T, Q14151  -0.633 ± 0.1
95. Scaffold attachment factor B2 G51D, Q14151  -0.7 ± 0.14
96. Scaffold attachment factor B2 G51Q, Q14151  -0.704 ± 0.096
97. Scaffold attachment factor B2 G51V, Q14151  -0.729 ± 0.084
98. Scaffold attachment factor B2 G51K, Q14151  -0.786 ± 0.15
99. Scaffold attachment factor B2 G51R, Q14151  -0.794 ± 0.072
100. Scaffold attachment factor B2 G51N, Q14151  -0.833 ± 0.25
101. Scaffold attachment factor B2 E67W, Q14151  -0.85 ± 0.11
102. Scaffold attachment factor B2 G51M, Q14151  -0.853 ± 0.12
103. Scaffold attachment factor B2 G51F, Q14151  -0.882 ± 0.19
104. Scaffold attachment factor B2 E67Y, Q14151  -0.889 ± 0.34
105. Scaffold attachment factor B2 G51L, Q14151  -0.908 ± 0.087
106. Scaffold attachment factor B2 K43Y, Q14151  -0.961 ± 0.25
107. Scaffold attachment factor B2 G51P, Q14151  -0.998 ± 0.26
108. Scaffold attachment factor B2 G50P, Q14151  -1.01 ± 0.16
109. Scaffold attachment factor B2 G51I, Q14151  -1.25 ± 0.4
110. Scaffold attachment factor B2 G51W, Q14151  -1.41 ± 0.1
